The source of these data is PMC4444369 (Journal of molecular biology, 2014).

The target of the assay is APC3 (wild-type, untagged) (human, UniProt P30260-2 1-830). The experiment in a line: SEC. (In general: In gel filtration, larger molecules generally elute earlier.)

B1: APC16^C (Strep tag removed by TEV) (domain or fragment)
chain: not shown
Turning to B1, the binding result was “binds”.
